Data: patent US20250304712A1 (NATIONAL UNIVERSITY OF SINGAPORE, published 2025)
Values belong to the binder of their own block, whether it stands above or below them.

Assays:
[1] = biological target: T1, Lymphocyte antigen 6 family member K (LY6K) expressed on the cell surface of human cells (human, UniProt Q17RY6 18-138); test: flow cytometry on Calu-1 cells
T1 construct: whole, on cells; overexpressed in HEK293T for ADCC; also called LY6K on Ca Ski, Calu-1 and other human cancer cell lines; HEK293T-Ly6K overexpressing cells
T1 sequence (looked up): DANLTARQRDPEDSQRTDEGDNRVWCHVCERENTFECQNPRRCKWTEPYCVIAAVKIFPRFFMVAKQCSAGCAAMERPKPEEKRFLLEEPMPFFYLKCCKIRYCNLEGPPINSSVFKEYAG

[2] = biological target: T1, Lymphocyte antigen 6 family member K …; test: flow cytometry on human cancer cell lines

- binding result [1]: binds
B1: humanized 22C-G8 (antibody, V domains shown)
VH: QVQLVQSGAEVKKPGASVKVSCKASGYTFTSYWMHWVRQAPGQGLEWIGEINPSNGGANYNEKFKRRATMTVDKSTSTVYMELSSLRSEDTAVYYCTMGGNFFFAYWGQGTLVTVSS
VL: DVVMTQSPLSLSVTLGQPASISCKSSQSLLASDGKTYLNWFQQRPGQSPRRLIYLVSKLDSGVPDRFSGSGSGTDFTLKISRVEAEDVGVYYCWQGSHFPLTFGGGTKVE
notes: CDR-grafted into human frameworks; also called Hu22C-G8; Hu 22C-G8

- binding result [2]: binds
B2: murine anti-LY6K antibody G57 (antibody, V domains shown)
VH: EVQLVESGGDLVKPGGSLKLSCAASGFTFNSYGMSWVRQTPDKRLEWVATISSGGTYTYYSDSVKGRFTISRDNAKNILYLHMSSLKSEDTAMYYCARHDWDFFDYWGQGTTLTVSS
VL: DVVMTQTPLSLPVSLGDQASISCRSSQSLVHTDGDTYLNWYLQKPGQSPKLLIYKVSNRFSGVPDRFSGSGSGTDFTLKIRRVEAEDLGVYFCSQNTHVYTFGGGTKLE
notes: Hybridoma-derived; also called Ms G57
